Experimental findings from article PMC4425475 are described below.

Assay [1] addresses sFlaF-R161A (S. acidocaldarius). In words: SEC.
The target of assay [2] is sFlaF-L101Y (S. acidocaldarius). As to the kind of experiment: SEC.
Assay [3] deals with sFlaF (soluble FlaF, Δ34FlaF, residues 35-164 with an N-terminal His-tag) (S. acidocaldarius). As to the kind of experiment: SAXS.
The target in assay [4] is S-layer isolated from S. acidocaldarius strain MW001 (WT) (S. acidocaldarius (endogenous in MW001)) (UniProt Q4J6E5). In words: co-sedimentation.

Regarding sFlaF-R161A (domain or fragment), in assay [1], the stoichiometry N came to 2. Turning to sFlaF-L101Y (domain or fragment), the stoichiometry N in assay [2] worked out at 2.

“sFlaF (soluble FlaF, Δ34FlaF, residues 35-164 with an N-terminal His-tag) (domain or fragment)” came in with a stoichiometry N in assay [3] of 2. Moreover, in assay [4], the percent bound is 50%.
